According to the supplement of paper PMC9112550, “Optimization of the antimicrobial peptide Bac7 by deep mutational scanning” (BMC Biology, 2022):

Test system: Escherichia coli TOP10
Test: shrunken log2 fold change of peptide-encoding DNA abundance (4.5 h post-induction vs induction); higher = less antimicrobial activity (less host growth inhibition)
Conditions: time post-induction: 4.5 h; library: site-saturation at positions 5, 18, 19, 20
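Further: peptides expressed intracellularly from a pBAD plasmid library in pooled LB shake-flask culture, induced with 0.3% L-arabinose, DNA abundance read by NGS, three biological replicates, DESeq2 with apeglm shrinkage.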

Sequence	shrunken log2 fold change
RRIRDRPPRLPRPRPRPTWFPRP	0.295
RRIRDRPPRLPRPRPRPTWIPRP	-0.0164
RRIRDRPPRLPRPRPRPTWSPRP	0.235
RRIRDRPPRLPRPRPRPTYPPRP	-0.106
RRIRDRPPRLPRPRPRPVADPRP	0.22
RRIRDRPPRLPRPRPRPVDGPRP	0.0169
RRIRDRPPRLPRPRPRPVENPRP	-0.127
RRIRDRPPRLPRPRPRPVERPRP	-0.00663
RRIRDRPPRLPRPRPRPVFPPRP	0.108
RRIRDRPPRLPRPRPRPVGLPRP	0.627
RRIRDRPPRLPRPRPRPVHHPRP	0.0594
RRIRDRPPRLPRPRPRPVKAPRP	0.026
RRIRDRPPRLPRPRPRPVKCPRP	-0.117
RRIRDRPPRLPRPRPRPVKGPRP	0.0617
RRIRDRPPRLPRPRPRPVKKPRP	-0.0221
RRIRDRPPRLPRPRPRPVLEPRP	0.627
RRIRDRPPRLPRPRPRPVLVPRP	0.0945
RRIRDRPPRLPRPRPRPVMNPRP	-0.343
RRIRDRPPRLPRPRPRPVMVPRP	0.111
RRIRDRPPRLPRPRPRPVNIPRP	0.0452
RRIRDRPPRLPRPRPRPVNTPRP	-0.327
RRIRDRPPRLPRPRPRPVPCPRP	0.0758

Sequence	shrunken log2 fold change
RRIRDRPPRLPRPRPRPVPTPRP	0.247
RRIRDRPPRLPRPRPRPVQCPRP	-0.242
RRIRDRPPRLPRPRPRPVQFPRP	-0.0196
RRIRDRPPRLPRPRPRPVRGPRP	1
RRIRDRPPRLPRPRPRPVSSPRP	-0.0849
RRIRDRPPRLPRPRPRPVTCPRP	-0.00663
RRIRDRPPRLPRPRPRPVTIPRP	-0.0184
RRIRDRPPRLPRPRPRPVVMPRP	0.194
RRIRDRPPRLPRPRPRPVVTPRP	0.689
RRIRDRPPRLPRPRPRPVVVPRP	0.328
RRIRDRPPRLPRPRPRPVWPPRP	0.225
RRIRDRPPRLPRPRPRPVWVPRP	-0.203
RRIRDRPPRLPRPRPRPVWWPRP	-0.00968
RRIRDRPPRLPRPRPRPWDVPRP	-0.00145
RRIRDRPPRLPRPRPRPWEPPRP	-1.35
RRIRDRPPRLPRPRPRPWFGPRP	0.228
RRIRDRPPRLPRPRPRPWFNPRP	-0.161
RRIRDRPPRLPRPRPRPWFSPRP	-0.317
RRIRDRPPRLPRPRPRPWGPPRP	-0.0594
RRIRDRPPRLPRPRPRPWGWPRP	0.226
RRIRDRPPRLPRPRPRPWIMPRP	-0.0114
RRIRDRPPRLPRPRPRPWKEPRP	-0.0075

Sequence	shrunken log2 fold change
RRIRDRPPRLPRPRPRPWLGPRP	0.109
RRIRDRPPRLPRPRPRPWLLPRP	0.0241
RRIRDRPPRLPRPRPRPWMPPRP	-0.11
RRIRDRPPRLPRPRPRPWMWPRP	0.00708
RRIRDRPPRLPRPRPRPWNIPRP	0.0629
RRIRDRPPRLPRPRPRPWRTPRP	-0.0162
RRIRDRPPRLPRPRPRPWSRPRP	-0.612
RRIRDRPPRLPRPRPRPWTNPRP	-0.111
RRIRDRPPRLPRPRPRPWTRPRP	-0.231
RRIRDRPPRLPRPRPRPWTSPRP	0.21
RRIRDRPPRLPRPRPRPWVGPRP	0.0332
RRIRDRPPRLPRPRPRPWVTPRP	-0.0629
RRIRDRPPRLPRPRPRPWWGPRP	-0.00301
RRIRDRPPRLPRPRPRPYEKPRP	-0.191
RRIRDRPPRLPRPRPRPYELPRP	-0.118
RRIRDRPPRLPRPRPRPYFEPRP	-0.3
RRIRDRPPRLPRPRPRPYFIPRP	-0.324
RRIRDRPPRLPRPRPRPYGNPRP	-0.117
RRIRDRPPRLPRPRPRPYHSPRP	-0.198
RRIRDRPPRLPRPRPRPYIMPRP	-0.42
RRIRDRPPRLPRPRPRPYIRPRP	-0.12
RRIRDRPPRLPRPRPRPYKIPRP	-1.46

Sequence	shrunken log2 fold change
RRIRDRPPRLPRPRPRPYLIPRP	-0.387
RRIRDRPPRLPRPRPRPYLTPRP	-0.0558
RRIRDRPPRLPRPRPRPYLYPRP	-0.0408
RRIRDRPPRLPRPRPRPYNEPRP	-0.0252
RRIRDRPPRLPRPRPRPYPDPRP	-0.27
RRIRDRPPRLPRPRPRPYPRPRP	0.0039
RRIRDRPPRLPRPRPRPYQYPRP	-0.0404
RRIRDRPPRLPRPRPRPYRQPRP	0.0922
RRIRDRPPRLPRPRPRPYVTPRP	-0.131
RRIRDRPPRLPRPRPRPYWDPRP	-0.766
RRIRDRPPRLPRPRPRPYWFPRP	-0.579
RRIRDRPPRLPRPRPRPYWMPRP	-0.541
RRIRDRPPRLPRPRPRPYWNPRP	-0.602
RRIRDRPPRLPRPRPRPYWSPRP	-0.503
RRIRDRPPRLPRPRPRPYYKPRP	-0.195
RRIRDRPPRLPRPRPRPYYNPRP	-1.01
RRIRDRPPRLPRPRPRPYYWPRP	-0.184
RRIRERPPRLPRPRPRPAAGPRP	0.315
RRIRERPPRLPRPRPRPAALPRP	-0.0784
RRIRERPPRLPRPRPRPACAPRP	0.455
RRIRERPPRLPRPRPRPACPPRP	-0.0623
RRIRERPPRLPRPRPRPADFPRP	0.0432

Sequence	shrunken log2 fold change
RRIRERPPRLPRPRPRPAEDPRP	0.0107
RRIRERPPRLPRPRPRPAFTPRP	-0.0832
RRIRERPPRLPRPRPRPAGIPRP	-0.536
RRIRERPPRLPRPRPRPAGVPRP	0.157
RRIRERPPRLPRPRPRPAHLPRP	0.301
RRIRERPPRLPRPRPRPALTPRP	0.131
RRIRERPPRLPRPRPRPAMWPRP	0.293
RRIRERPPRLPRPRPRPANCPRP	-0.65
RRIRERPPRLPRPRPRPANLPRP	-0.254
RRIRERPPRLPRPRPRPAPDPRP	0.26
RRIRERPPRLPRPRPRPAPKPRP	0.678
RRIRERPPRLPRPRPRPAQTPRP	0.0281
RRIRERPPRLPRPRPRPARHPRP	-0.00285
RRIRERPPRLPRPRPRPARPPRP	0.626
RRIRERPPRLPRPRPRPARQPRP	0.0428
RRIRERPPRLPRPRPRPASGPRP	0.133
RRIRERPPRLPRPRPRPATMPRP	-0.324
RRIRERPPRLPRPRPRPAVAPRP	0.0153
RRIRERPPRLPRPRPRPAVDPRP	0.116
RRIRERPPRLPRPRPRPAVFPRP	0.154
RRIRERPPRLPRPRPRPAWLPRP	0.471
